The results in this text go back to publication PMC3526836.

The labels stand for the following.
B1: NHERF1 PDZ1 domain (N-terminal PDZ domain of NHERF1/EBP50), wild type (domain or fragment)
chain: LPRLCCLEKGPNGYGFHLHGEKGKLGQYIRLVEPGSPAEKAGLLAGDRLVEVNGENVEKETHQQVVSRIRAALNAVRLLVVDPETDEQL
B2: NHERF1 PDZ1 domain Y38A/R40A (domain or fragment)
chain: LPRLCCLEKGPNGYGFHLHGEKGKLGQAIALVEPGSPAEKAGLLAGDRLVEVNGENVEKETHQQVVSRIRAALNAVRLLVVDPETDEQL
B3: NHERF1 PDZ1 domain K32A/K34A (domain or fragment)
chain: LPRLCCLEKGPNGYGFHLHGEAGALGQYIRLVEPGSPAEKAGLLAGDRLVEVNGENVEKETHQQVVSRIRAALNAVRLLVVDPETDEQL

A word on the Kd: it is the concentration at which binding is half-saturated. The low end stands for a tighter complex, the high end for a looser complex.

This assay deals with C-terminal peptide of cystic fibrosis transmembrane conductance regulator (CFTR), F-Ahx-VQDTLR. Nature of the assay: fluorescence polarisation. Background: Polarisation of emitted light reports the rotation of a fluorescent probe.
Take B1: the Kd is 13 µM. In the case of B2, the Kd came to 14 µM. As to B3, the Kd was 13 µM.
